# From US20240261333A1 (published 2024)
# T1: STAU2 (human, UniProt Q9NUL3 1-570, limits assumed)
# T1 construct: also called NP_001157852.1 (+4)
# T1 sequence (looked up): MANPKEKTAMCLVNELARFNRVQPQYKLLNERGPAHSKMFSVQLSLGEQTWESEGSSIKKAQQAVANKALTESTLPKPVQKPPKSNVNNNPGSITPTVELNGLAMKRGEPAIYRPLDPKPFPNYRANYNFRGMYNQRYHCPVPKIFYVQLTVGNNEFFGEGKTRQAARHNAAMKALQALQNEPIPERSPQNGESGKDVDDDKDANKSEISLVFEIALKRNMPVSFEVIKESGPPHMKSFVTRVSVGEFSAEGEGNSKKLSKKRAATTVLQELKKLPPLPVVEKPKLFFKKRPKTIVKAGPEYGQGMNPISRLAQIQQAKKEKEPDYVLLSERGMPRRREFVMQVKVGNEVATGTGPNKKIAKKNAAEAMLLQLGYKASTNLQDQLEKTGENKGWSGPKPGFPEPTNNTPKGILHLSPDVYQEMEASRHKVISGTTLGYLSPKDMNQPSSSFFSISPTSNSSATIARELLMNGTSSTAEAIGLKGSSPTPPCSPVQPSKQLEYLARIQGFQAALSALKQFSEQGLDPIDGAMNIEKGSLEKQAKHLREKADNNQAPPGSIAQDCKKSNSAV
# T2: PJA2 (human, UniProt O43164 2-708)
# T2 construct: also called NP_055634.3
# T2 sequence (looked up): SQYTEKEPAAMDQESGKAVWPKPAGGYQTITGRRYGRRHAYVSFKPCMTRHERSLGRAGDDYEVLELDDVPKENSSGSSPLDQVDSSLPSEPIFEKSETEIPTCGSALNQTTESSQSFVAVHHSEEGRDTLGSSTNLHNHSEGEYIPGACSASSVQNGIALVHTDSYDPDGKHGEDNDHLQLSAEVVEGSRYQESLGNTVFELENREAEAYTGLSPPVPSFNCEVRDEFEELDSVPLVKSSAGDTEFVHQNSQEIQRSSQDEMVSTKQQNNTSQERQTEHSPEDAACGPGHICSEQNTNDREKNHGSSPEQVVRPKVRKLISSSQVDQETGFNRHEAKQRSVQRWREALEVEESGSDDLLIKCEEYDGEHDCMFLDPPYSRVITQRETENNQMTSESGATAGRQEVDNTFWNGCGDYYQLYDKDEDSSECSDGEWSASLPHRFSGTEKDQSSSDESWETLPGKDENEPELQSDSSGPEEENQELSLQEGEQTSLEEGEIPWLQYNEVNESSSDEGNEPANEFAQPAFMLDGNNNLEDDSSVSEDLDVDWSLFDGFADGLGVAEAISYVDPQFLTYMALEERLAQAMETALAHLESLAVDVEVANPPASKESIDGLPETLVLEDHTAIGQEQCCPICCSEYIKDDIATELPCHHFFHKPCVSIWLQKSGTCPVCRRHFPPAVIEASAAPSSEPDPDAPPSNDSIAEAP
# T3: RARS (human, UniProt P54136 1-660)
# T3 construct: also called NP_002878.2
# T3 sequence (looked up): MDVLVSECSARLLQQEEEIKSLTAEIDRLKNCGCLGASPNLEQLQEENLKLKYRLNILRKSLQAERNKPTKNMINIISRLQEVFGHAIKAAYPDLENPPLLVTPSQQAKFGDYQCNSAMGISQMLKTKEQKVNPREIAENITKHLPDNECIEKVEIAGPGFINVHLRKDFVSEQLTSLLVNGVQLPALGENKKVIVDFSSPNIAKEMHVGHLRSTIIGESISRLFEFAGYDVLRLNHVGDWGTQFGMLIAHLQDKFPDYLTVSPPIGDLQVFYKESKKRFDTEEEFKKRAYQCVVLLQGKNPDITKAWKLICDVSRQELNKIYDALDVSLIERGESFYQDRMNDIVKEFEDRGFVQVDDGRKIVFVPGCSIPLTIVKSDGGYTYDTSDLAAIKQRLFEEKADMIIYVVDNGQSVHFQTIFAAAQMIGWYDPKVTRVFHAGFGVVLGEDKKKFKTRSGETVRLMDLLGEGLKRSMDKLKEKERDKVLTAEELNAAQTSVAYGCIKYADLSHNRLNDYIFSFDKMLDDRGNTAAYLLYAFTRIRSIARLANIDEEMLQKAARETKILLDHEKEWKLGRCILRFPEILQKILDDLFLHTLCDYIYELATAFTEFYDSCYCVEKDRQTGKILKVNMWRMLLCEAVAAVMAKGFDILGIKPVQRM
# Legend:
# Experiment in all cases: co-IP with anti-FLAG, mass spectrometry; lysate of cells with N-FLAG B3GNT2
# GAPDH = target: T4, GAPDH (human, UniProt P04406 2-335, limits assumed)
# T4 construct: also called NP_001344872.1 (+1)
# T4 sequence (P04406 2-335 limits assumed): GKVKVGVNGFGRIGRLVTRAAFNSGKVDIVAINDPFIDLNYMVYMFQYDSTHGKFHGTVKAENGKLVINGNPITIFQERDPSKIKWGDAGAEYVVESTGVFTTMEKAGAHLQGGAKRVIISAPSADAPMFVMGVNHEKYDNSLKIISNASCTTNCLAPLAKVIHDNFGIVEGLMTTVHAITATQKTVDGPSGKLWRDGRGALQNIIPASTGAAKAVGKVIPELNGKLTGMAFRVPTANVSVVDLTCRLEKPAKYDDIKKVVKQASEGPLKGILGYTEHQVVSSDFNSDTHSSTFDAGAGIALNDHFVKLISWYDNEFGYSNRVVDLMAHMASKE
# STAU2 = target: T1, STAU2
# PJA2 = target: T2, PJA2
# RARS = target: T3, RARS
binder,measurement,setting,value
"N-terminal FLAG tagged B3GNT2 (enzyme, human, UniProt Q9NY97 1-397, looked up, Bait of the co-IP; pulled down with mouse anti-FLAG (Millipore Sigma F3165) from cell lysate; also called N-FLAG B3GNT2; N-term FLAG; not shown: N-terminal FLAG tag) MSVGRRRIKLLGILMMANVFIYFIMEVSKSSSQEKNGKGEVIIPKEKFWKISTPPEAYWNREQEKLNRQYNPILSMLTNQTGEAGRLSNISHLNYCEPDLRVTSVVTGFNNLPDRFKDFLLYLRCRNYSLLIDQPDKCAKKPFLLLAIKSLTPHFARRQAIRESWGQESNAGNQTVVRVFLLGQTPPEDNHPDLSDMLKFESEKHQDILMWNYRDTFFNLSLKEVLFLRWVSTSCPDTEFVFKGDDDVFVNTHHILNYLNSLSKTKAKDLFIGDVIHNAGPHRDKKLKYYIPEVVYSGLYPPYAGGGGFLYSGHLALRLYHITDQVHLYPIDDVYTGMCLQKLGLVPEKHKGFRTFDIEEKNKNNICSYVDLMLVHSRKPQEMIDIWSQLQSAHLKC",co-IP mass spectrometry count,GAPDH,18
same,co-IP mass spectrometry count,STAU2,0
same,co-IP mass spectrometry count,PJA2,0
same,co-IP mass spectrometry count,RARS,0
